Experimental data from US20120009171A1 (SHIRE HUMAN GENETIC THERAPIES, published 2012).

Biological target: the molecule itself
Experiment: SEC-HPLC, mobile phase 100 mM sodium citrate pH 5.5 (self-association)
Description: Waters HPLC systems were used for size exclusion and reversed phase HPLC analyses. For initial SEC-HPLC analysis, 50 μg of rhASA was injected on to an Agilent Zorbax GF-250 column (4.6 mm×250 mm) and run isocratically at 0.24 mL/min using a mobile phase of 100 mM sodium citrate pH 5.5 (octomer detection) with a detection wavelength of 280 nm. The analyses were repeated using mobile phase conditions of 100 mM sodium citrate, pH 7.0 (dimer detection).
Analysis by size exclusion HPLC detected some degradation for the 2 week thermal stressed sample formulated in 5 mM sodium phosphate with 154 mM NaCl at pH 7.0. The degradation was more evident by SEC-HPLC using a pH 5.5 mobile phase condition which induces association of rhASA to an octamer.

B1: recombinant human arylsulfatase A (rhASA) (enzyme)
chain: RPPNIVLIFADDLGYGDLGCYGHPSSTTPNLDQLAAGGLRFTDFYVPVSLCTPSRAALLTGRLPVRMGMYPGVLVPSSRGGLPLEEVTVAEVLAARGYLTGMAGKWHLGVGPEGAFLPPHQGFHRFLGIPYSHDQGPCQNLTCFPPATPCDGGCDQGLVPIPLLANLSVEAQPPWLPGLEARYMAFAHDLMADAQRQDRPFFLYYASHHTHYPQFSGQSFAERSGRGPFGDSLMELDAAVGTLMTAIGDLGLLEETLVIFTADNGPETMRMSRGGCSGLLRCGKGTTYEGGVREPALAFWPGHIAPGVTHELASSLDLLPTLAALAGAPLPNVTLDGFDLSPLLLGTGKSPRQSLFFYPSYPDEVRGVFAVRTGKYKAHFFTQGSAHSDTTADPACHASSSLTAHEPPLLYDLSKDPGENYNLLGGVAGATPEVLQALKQLQLLKAQLDAAVTFGPSQVARGEDPALQICCHPGCTPRPACCHCPDPHA
notes: By SEC-HPLC it associates to an octamer at pH 5.5 and is seen as a dimer at pH 7.0; also called recombinantly-prepared human arylsulfatase A; human ASA
B1: binds.
